Results reported in publication PMC5384083.

How the values were obtained:
CBP, endogenous [1] = target: CBP, endogenous (UniProt Q92793); assay: co-immunoprecipitation (IP GFP, western blot CBP) quantified with image J; conditions: MCF7 cells; 3 independent experiments; parent: est. 25; read off a plot
[2] = target: Retinoblastoma protein (Rb), endogenous (UniProt P06400); assay: co-immunoprecipitation (IP GFP, western blot Rb), band intensity given; conditions: MCF7 cells
[3] = target: Retinoblastoma protein (Rb), endogenous (UniProt P06400); assay: co-immunoprecipitation (IP GFP, western blot Rb) quantified with image J; conditions: MCF7 cells; 3 independent experiments; parent: est. 32; read off a plot
CBP, endogenous [4] = target: CBP, endogenous (UniProt Q92793); assay: co-immunoprecipitation (IP GFP, western blot CBP), band intensity given; conditions: MCF7 cells
DNMT3b, endogenous = DNMT3b, endogenous (UniProt Q9UBC3); assay: co-immunoprecipitation (IP GFP, western blot DNMT3b), band intensity given; conditions: MCF7 cells

UniProt P06400, sequence (P06400 whole entry): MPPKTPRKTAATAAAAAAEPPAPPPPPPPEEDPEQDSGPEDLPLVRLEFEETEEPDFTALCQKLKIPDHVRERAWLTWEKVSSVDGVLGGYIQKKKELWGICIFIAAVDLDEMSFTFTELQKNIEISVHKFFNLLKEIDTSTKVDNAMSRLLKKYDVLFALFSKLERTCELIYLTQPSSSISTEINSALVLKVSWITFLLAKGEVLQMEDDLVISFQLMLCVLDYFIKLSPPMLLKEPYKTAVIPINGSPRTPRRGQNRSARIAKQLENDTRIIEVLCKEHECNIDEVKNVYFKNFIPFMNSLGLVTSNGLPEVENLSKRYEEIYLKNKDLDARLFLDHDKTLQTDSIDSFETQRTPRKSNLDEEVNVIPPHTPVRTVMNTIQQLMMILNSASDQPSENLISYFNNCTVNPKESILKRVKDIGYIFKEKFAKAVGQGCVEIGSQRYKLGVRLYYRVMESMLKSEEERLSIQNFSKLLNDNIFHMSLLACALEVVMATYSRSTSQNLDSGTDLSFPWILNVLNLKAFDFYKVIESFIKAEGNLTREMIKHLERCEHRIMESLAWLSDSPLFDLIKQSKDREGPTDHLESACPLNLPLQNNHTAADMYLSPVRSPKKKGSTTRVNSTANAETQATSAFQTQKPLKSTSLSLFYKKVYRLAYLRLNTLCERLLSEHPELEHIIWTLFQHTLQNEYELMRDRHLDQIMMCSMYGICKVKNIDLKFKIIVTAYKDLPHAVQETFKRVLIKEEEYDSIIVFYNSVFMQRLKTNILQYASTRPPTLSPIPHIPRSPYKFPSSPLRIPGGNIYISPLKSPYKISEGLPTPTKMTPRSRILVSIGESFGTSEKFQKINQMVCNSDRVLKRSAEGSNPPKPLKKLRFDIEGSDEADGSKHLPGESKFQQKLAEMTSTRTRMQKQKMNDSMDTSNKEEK
UniProt Q92793, sequence (Q92793 whole entry): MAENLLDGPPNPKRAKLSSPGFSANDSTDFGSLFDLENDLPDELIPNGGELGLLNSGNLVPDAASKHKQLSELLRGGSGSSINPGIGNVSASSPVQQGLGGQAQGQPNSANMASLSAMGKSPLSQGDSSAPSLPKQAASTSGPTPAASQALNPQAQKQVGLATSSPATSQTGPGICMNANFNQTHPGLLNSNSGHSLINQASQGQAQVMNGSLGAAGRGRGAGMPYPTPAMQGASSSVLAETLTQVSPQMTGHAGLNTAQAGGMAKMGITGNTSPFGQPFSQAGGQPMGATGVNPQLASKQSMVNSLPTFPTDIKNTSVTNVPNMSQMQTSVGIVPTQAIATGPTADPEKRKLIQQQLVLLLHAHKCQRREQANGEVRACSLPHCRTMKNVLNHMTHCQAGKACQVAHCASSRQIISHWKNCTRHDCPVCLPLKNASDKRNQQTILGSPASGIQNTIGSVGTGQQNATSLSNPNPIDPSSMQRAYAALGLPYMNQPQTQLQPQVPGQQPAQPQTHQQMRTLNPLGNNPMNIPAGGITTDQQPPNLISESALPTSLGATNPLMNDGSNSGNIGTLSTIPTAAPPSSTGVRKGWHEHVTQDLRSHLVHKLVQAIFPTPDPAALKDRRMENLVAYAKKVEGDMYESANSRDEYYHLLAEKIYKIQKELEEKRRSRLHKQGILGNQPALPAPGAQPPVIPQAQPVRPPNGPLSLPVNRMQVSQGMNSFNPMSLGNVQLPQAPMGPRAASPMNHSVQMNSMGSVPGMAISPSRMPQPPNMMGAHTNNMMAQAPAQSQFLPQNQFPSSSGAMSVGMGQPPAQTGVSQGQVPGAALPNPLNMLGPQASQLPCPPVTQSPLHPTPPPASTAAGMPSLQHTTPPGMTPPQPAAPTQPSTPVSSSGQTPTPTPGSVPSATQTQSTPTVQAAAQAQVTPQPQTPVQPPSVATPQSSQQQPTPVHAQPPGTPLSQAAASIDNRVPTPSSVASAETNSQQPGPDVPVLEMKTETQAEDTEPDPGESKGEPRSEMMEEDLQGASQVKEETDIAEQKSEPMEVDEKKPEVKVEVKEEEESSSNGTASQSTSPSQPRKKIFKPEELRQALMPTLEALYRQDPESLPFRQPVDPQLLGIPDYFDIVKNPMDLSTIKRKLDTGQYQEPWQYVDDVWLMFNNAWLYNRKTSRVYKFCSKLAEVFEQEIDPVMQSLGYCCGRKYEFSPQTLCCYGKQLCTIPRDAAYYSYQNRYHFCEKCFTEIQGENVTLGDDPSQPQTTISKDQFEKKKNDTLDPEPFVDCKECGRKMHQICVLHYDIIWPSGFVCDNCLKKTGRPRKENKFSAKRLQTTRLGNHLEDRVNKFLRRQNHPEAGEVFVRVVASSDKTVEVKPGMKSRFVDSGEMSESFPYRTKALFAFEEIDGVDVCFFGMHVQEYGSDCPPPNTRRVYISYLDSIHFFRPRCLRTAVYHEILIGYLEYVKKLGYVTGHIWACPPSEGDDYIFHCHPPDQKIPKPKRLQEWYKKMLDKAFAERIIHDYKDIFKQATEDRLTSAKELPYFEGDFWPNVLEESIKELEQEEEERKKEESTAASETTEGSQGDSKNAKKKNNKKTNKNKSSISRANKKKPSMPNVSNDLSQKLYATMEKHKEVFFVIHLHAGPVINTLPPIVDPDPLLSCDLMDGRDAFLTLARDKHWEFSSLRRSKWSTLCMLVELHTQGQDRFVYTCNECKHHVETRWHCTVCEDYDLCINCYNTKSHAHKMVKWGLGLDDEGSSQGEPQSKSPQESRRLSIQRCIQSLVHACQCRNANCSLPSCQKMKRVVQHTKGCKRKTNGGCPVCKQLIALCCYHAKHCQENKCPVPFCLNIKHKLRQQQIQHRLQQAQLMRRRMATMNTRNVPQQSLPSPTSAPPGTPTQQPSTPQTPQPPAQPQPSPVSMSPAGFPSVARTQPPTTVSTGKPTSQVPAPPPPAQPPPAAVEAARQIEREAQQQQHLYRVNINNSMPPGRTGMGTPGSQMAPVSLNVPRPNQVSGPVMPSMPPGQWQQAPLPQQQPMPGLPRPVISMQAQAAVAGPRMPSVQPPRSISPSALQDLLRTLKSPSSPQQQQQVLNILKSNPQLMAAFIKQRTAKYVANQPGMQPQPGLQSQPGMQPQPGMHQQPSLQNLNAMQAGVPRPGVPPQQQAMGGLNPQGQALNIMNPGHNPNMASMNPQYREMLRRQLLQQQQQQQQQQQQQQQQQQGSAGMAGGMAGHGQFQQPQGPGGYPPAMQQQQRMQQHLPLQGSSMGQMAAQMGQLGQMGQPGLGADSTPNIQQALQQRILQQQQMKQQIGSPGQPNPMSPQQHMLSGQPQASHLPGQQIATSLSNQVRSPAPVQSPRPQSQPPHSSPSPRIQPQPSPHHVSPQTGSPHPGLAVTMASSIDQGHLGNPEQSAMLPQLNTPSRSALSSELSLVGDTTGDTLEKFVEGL

Substance: GFP-FoxM1 full length (FL) S715A; S724A
- response (fold pull down) (CBP, endogenous [1]): 9.7
- response [2]: 24.7
- response (fold pull down) [3]: 36
- response (CBP, endogenous [4]): 6
- response (DNMT3b, endogenous): 90

Substance: GFP-FoxM1 full length (FL) S715D; S724D
- response (fold pull down) (CBP, endogenous [1]): 31
- response [2]: 6.7
- response (fold pull down) [3]: 5.8
- response (CBP, endogenous [4]): 21
- response (DNMT3b, endogenous): 32.3

Substance: GFP-FoxM1 full length (FL) T596A
- response (fold pull down) (CBP, endogenous [1]): 8.4
- response [2]: 30.4
- response (fold pull down) [3]: 38
- response (CBP, endogenous [4]): 5.1
- response (DNMT3b, endogenous): 112
